Laboratory results as given in US8563695B2, “Antibodies that bind β2” (Genentech, Inc., priority 2007, dated 2013).
Values belong to the molecule of their own block, whether it stands above or below them.

Tests used:
[1] = system: SW620 cells; assay: Stimulation of SW620 cells with Notch ligands (co-culture or plate-bound) for EMT induction; assay type: cell-based, human; details: exogenous ligand in trans by co-culture or plate-bound; data not shown
[2] = system: SW620 cells; assay: Chemical inhibition of Notch signaling: E-cadherin staining of β2 ECD-treated SW620 cells; assay type: cell-based, human
Procedure: Vimentin and actin cytoskeleton (rhodamine-phalloidin): cells were fixed in 4% paraformaldehyde for 20 minutes at room temperature and permeabilzed with 0.05% saponin for 5 minutes at room temperature. For β2, REST, cleaved-Notch1 NICD and E-cadherin staining: cells were fixed in methanol at 4° C. for 2 minutes. Primary antibody incubation was at room temperature for 1 hour (for vimentin staining), or for 15 minutes (for rhodamine-phalloidin staining) or at 37° C. for 1 hour (for β2, REST, cleaved-Notch1 NICD and E-cadherin staining). Secondary antibody incubation was at room temperature for 30 minutes. […]
Images were converted from Photoshop format to Tif in Photoshop CS2 (version 9.0.2, Adobe; San Jose, Calif.). […] Typically, 5 independent regions were analyzed and combined for each analysis.
Activation of Notch signaling requires cleavage of the receptor by both an ADAM protease and gamma-secretase to release the Notch intracellular domain (NICD). […] SW620 cells were mixed with DMSO (vehicle control) or the specific gamma-secretase inhibitor DAPT (N—[N-(3,5-difluorophenylacetyl-L-alanine)]-S-phenylglycine t-butylester) at 500 nM in DMSO, treated with β2 ECD in conditioned media, and analyzed for loss of E-cadherin. […]

[3] = system: SW620 cells; assay: E-cadherin and vimentin staining of SW620 cells treated with β2 ECD; assay type: cell-based, human
Procedure: (§1) Vimentin and actin cytoskeleton (rhodamine-phalloidin): cells were fixed in 4% paraformaldehyde for 20 minutes at room temperature and permeabilzed with 0.05% saponin for 5 minutes at room temperature. For β2, REST, cleaved-Notch1 NICD and E-cadherin staining: cells were fixed in methanol at 4° C. for 2 minutes. Primary antibody incubation was at room temperature for 1 hour (for vimentin staining), or for 15 minutes (for rhodamine-phalloidin staining) or at 37° C. for 1 hour (for β2, REST, cleaved-Notch1 NICD and E-cadherin staining). Secondary antibody incubation was at room temperature for 30 minutes. Antibodies used were as following: α-ankyrin monoclonal antibody (Chemincon International, Temecula, Calif.); α-vimentin monoclonal antibody (Sigma-Aldrich, St. Louis, Mo.); rhodamine-phalloidin (Molecular Probes, Eugene, Oreg.), α-REST polyclonal antibody (Upstate, Lake Placid, N.Y.), α-E-cadherin monoclonal antibody (Invitrogen, Carlsbad, Calif.), α-Notch1 (Val1744 peptide, detects both intact and cleaved Notch1 NICD) (Cell Signaling, Danvers, Mass.) or α-β2 monoclonal antibody (Genentech, Inc.). Secondary antibodies were as follows: Cy3-conjugated rabbit α-mouse IgG or Cy3-conjugated donkey α-rabbit IgG (Jackson Lab, Bar Harbor, Me.). Slides were mounted with Vectashield mounting media with DAPI (4′,6-diamidino-2-phenylindole) (Vector Lab, Burlingame, Calif.). […]

[4] = system: SW620 cells; assay: Migration assay of SW620 cells treated with β2 ECD; assay type: cell-based, human; details: β2 ECD in conditioned media, 0.1% FBS, 18 hours; p=0.0009
Procedure: Migration assays were performed using the HTS FluoroBlock Multiwell insert system with […] (BD Biosciences, Bedford, Mass.). 10^5 cells/well were seeded into the upper wells and FBS was added to the bottom wells. After 18 hr, cells that migrated to the other side of the trans-well membrane were stained in 10 um YO-PRO-1 iodide (Invitrogen, Eugene, Oreg.) and quantitated using the fluorescence plate reader Spectra Max GeminiEM (Molecular Devices, Sunnyvale, Calif.).

[5] = biological target: T1, Notch1 ECD fragment containing EGF repeats 22-33 (Homo sapiens, UniProt P46531); assay: Direct binding of β2 ECD and Notch1 ECD fragment EGF 22-33; details: α-FLAG immunoblot
T1 construct: purified fragments of the Notch1 ECD, containing either EGF repeats 10-21 or 22-33; FLAG (C)

[6] = system: naïve CHO cells, MDCK cells, HUVEC (endothelial), or tumor cell lines NCI-H226, SW620, SW480, and PC-3; assay: β2 ECD induced phenotype assay (actin cytoskeleton, morphology); assay type: cell-based; details: conditioned media containing β2 ECD, 48-72 hours
Procedure: as §1

[7] = system: CHO cells; assay: Methotrexate resistance in CHO cells (trypan blue); assay type: cell-based, Chinese Hamster; details: 200 nM methotrexate for 48 hours; 60% of control-treated cells died; p=0.01
Procedure: Resistance to starvation: SW620 cells were seeded into 6 well plates at 25% confluence in complete media overnight. This media was replaced the next morning with media lacking FBS. For the assay, cells were detached using trypsin, washed, and stained in 0.4% Trypan Blue (Invitrogen, Carlsbad, Calif.). Total cells and dead cells were counted using a hemocytometer. Assays were performed in triplicate. Doxorubicin resistance: 2×10^4 SW620 cells were seeded in 96 well clear bottom black plates (Corning Inc., Corning, N.Y.) with serial dilutions of doxorubicin hydrochloride (Sigma-Aldrich, St. Louis, Mo.) and incubated for 5 days. Cell viability was measured by using Cell Titer Glo Luminescent Cell Viability Kit (Promega, Madison, Wis.). Luminescence was quantified using an Envision 2103 multilabel reader (PerkinElmer, Finland). Methotrexate resistance: 5×10^5 CHO cells were seeded in 6-well plates with β2 ECD in conditioned medium or control conditioned medium containing 200 nm methotrexate (Genentech Inc.). Cells were detached from the plate and stained with Trypan Blue 0.4% (Invitrogen, Carlsbad, Calif.) as described.

[8] = system: Notch1 NICD; assay: Translocation of Notch1 NICD to nucleus (confocal immunofluorescence); assay type: cell-based, human; details: SW620 cells 6 hours after treatment with β2 ECD in conditioned media; 100 um Lactacystin
Procedure: as §1, with “Inc.).” for “Inc.). Secondary antibodies were as follows: Cy3-conjugated rabbit α-mouse IgG or Cy3-conjugated donkey α-rabbit IgG (Jackson Lab, Bar Harbor, Me.). Slides were mounted with Vectashield mounting media with DAPI (4′,6-diamidino-2-phenylindole) (Vector Lab, Burlingame, Calif.).”
Activation of Notch1 by ligands results in cleavage to release the NICD, which translocates to the nucleus, and in concert with other proteins, directly regulates Notch target gene transcription. We analyzed whether nuclear NICD could be detected in cells in response to β2. […]

[9] = system: Twist1 and HES1 transcript; assay: Transcript expression (microarray, RT-PCR) in SW620 cells treated with β2 ECD; assay type: cell-based, human
Procedure: HES1 and Twist1 transcript expression from 0-72 hours in SW620 cells treated β2 ECD in conditioned medium. RNA was extracted from cells at 0, 6, 18, 24, 48, and 72 hour timepoints and microarray analysis performed on Agilent Whole Human Genome microarrays versus a universal reference RNA. Log ratio (Y-axis) is plotted against time in hours (X-axis). Transcript data for 2 independent HES1 oligonucleotide probe sequences and for Twist1 are shown.
RT-PCR analysis of Twist1 transcript expression at 0, 6, and 18 hr timepoints in SW620 cells treated with β2 ECD. Twist1 expression was normalized to housekeeping gene RPL19.

[10] = system: HEK293 cells; assay: β2 ECD induced phenotype assay in HEK293; assay type: cell-based; details: HEK293, do not express Notch1; FIG. 11A
Procedure: as §1

[11] = biological target: T2, Notch1 ECD fragment containing EGF repeats 10-21 (Homo sapiens, UniProt P46531); assay: Direct binding of β2 ECD and Notch1 ECD fragment EGF 10-21; details: α-FLAG immunoblot
T2 construct: purified fragments of the Notch1 ECD, containing either EGF repeats 10-21 or 22-33; FLAG (C)

[12] = biological target: T3, Notch1 ECD (EGF repeats 6-36) (Homo sapiens, UniProt P46531); assay: Direct binding of β2 ECD and Notch1 ECD (Ni-NTA pull-down, immunoblot); details: approximately 1 nM Notch1 ECD and 20 nM β2 ECD; vs control conditioned media with irrelevant histidine-tagged protein
T3 construct: Notch1 ECD region containing the majority of the EGF repeat region (repeats 6-36); FLAG (C)
Procedure: Immunoprecipitation: cells were removed from culture plates using 5 mm EDTA and lysed in TBS buffer containing 0.5% NP-40, EDTA-free protease inhibitor (Roche Diagnostics, Indianapolis, Ind.) and 1 mm PMSF. The cell lysate was incubated with pre-saturated protein G-agarose (Roche Diagnostics, Indianapolis, Ind.) at 4° C. for 1.5 hour followed by incubation with α-β2 monoclonal antibody at 4° C. for 2 hours. This cell lysate and antibody mixture was then incubated with pre-saturated protein G-agarose at 4° C. overnight. The agarose was collected and proteins were eluted in Tris-Glycine gel loading buffer (Invitrogen, Carlsbad, Calif.) for immunoblot analysis. Direct binding: conditioned media was collected as described above, incubated with FLAG-tagged Notch1 ECD:6-36 (5 μg) in 15 ml for 2 hours at room temperature with shaking 50 μl of Ni-NTA agarose bead slurry (Qiagen) was added with incubation for 2 hours at room temperature with shaking. Ni-NTA beads were collected by centrifugation and washed 3 times with PBS. Alternatively, conditioned media was treated with Ni-NTA beads to enrich for β2 and the resulting slurry incubated with Notch1 ECD:6-36 (5 μg) in 1 ml PBS and incubated and washed as described. Samples were eluted into 2× loading buffer. […]

T1 sequence (P46531 829-1305): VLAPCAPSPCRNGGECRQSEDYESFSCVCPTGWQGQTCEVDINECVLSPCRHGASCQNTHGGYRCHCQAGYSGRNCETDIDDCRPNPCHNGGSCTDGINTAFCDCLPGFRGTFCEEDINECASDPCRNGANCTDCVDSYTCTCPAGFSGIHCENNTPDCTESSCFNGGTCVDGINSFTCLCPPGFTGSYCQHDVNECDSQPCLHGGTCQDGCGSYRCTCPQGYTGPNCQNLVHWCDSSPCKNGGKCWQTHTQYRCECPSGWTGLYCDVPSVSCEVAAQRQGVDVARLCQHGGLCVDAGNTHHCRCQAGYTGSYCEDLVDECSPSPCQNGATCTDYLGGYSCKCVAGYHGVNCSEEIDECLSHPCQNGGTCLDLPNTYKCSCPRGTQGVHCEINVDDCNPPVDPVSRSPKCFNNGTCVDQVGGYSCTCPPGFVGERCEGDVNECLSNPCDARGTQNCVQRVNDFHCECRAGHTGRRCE
T2 sequence (P46531 372-827 limits assumed): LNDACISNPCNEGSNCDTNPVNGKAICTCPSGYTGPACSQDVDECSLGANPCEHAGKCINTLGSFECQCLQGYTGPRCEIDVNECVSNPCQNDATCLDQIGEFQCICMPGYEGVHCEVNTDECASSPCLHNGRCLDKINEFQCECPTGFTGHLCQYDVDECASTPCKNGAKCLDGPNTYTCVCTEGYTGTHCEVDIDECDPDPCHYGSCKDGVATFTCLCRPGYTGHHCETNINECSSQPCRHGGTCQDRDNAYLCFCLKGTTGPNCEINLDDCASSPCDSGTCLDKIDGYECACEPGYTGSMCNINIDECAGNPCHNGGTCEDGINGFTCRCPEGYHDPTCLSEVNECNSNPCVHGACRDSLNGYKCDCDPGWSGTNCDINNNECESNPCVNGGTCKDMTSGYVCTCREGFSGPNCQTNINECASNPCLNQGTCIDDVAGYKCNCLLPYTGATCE
T3 sequence (P46531 218-1426 limits assumed): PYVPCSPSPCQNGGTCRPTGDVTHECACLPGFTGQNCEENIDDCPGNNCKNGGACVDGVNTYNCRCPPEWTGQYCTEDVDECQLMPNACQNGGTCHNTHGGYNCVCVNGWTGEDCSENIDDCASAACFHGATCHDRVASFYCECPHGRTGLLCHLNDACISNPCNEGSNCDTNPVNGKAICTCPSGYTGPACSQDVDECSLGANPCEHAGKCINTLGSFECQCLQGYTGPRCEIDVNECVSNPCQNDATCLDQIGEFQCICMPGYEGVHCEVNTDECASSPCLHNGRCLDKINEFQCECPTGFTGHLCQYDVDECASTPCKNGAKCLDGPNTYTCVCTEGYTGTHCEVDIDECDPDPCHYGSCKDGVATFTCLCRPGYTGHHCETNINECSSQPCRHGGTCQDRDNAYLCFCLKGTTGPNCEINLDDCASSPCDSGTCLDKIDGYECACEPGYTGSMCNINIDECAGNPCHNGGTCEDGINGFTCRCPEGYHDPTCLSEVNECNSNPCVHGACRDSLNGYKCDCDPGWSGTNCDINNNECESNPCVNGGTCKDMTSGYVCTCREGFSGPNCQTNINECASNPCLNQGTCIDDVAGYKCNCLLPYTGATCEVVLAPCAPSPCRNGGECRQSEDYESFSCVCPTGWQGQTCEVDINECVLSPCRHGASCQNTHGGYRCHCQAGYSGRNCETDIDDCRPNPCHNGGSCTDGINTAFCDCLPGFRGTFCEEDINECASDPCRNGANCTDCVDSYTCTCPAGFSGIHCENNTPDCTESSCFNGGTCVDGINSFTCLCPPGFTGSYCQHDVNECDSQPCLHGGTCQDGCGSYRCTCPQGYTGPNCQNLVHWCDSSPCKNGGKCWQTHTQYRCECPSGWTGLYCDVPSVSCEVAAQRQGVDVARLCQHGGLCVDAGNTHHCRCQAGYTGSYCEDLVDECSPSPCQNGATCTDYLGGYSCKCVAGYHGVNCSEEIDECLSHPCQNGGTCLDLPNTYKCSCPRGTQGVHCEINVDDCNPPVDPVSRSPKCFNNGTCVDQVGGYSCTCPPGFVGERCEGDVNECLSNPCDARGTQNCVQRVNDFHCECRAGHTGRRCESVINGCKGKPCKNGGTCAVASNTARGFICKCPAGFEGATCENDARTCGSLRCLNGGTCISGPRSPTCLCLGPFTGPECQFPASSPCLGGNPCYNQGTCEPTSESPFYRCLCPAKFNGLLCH

Molecule: Jagged1: Notch ligand of the Jagged family, added exogenously (co-culture or plate-bound)
- Induction of EMT or related morphological change [1]: no evidence of induction of EMT or related morphological change

Molecule: C[C@H](NC(=O)Cc1cc(F)cc(F)c1)C(=O)NC(C(=O)OC(C)(C)C)c1ccccc1 (stereo partly drawn) [DAPT, N—[N-(3,5-difluorophenylacetyl-L-alanine)]-S-phenylglycine t-butylester]
- E-cadherin staining ([2]; DAPT 500 nM in DMSO, SW620 cells treated with β2 ECD in conditioned media): remained E-cadherin positive
- E-cadherin levels, quantitative analysis of staining ([2]; DAPT-treated vs DMSO, β2-ECD treated cells, p=0.00001): significantly different

- Binding to Notch1 ECD fragment EGF repeats 22-33 [5]: no detectable binding
- Binding to Notch1 ECD fragment EGF repeats 10-21 [11]: specifically bound
- Binding to FLAG-tagged Notch1 ECD (repeats 6-36) [12]: recovery of tagged Notch1
B1: β2 ECD: C-terminal polyhistidine-tagged (HIS8) extracellular domain of β2 (SCN2B) secreted from CHO cells, used in conditioned media (protein)
chain: MEVTVPATLNVLNGSDARLPCTFNSCYTVNHKQFSLNWTYQECNNCSEEMFLQFRMKIINLKLERFQDRVEFSGNPSKYDVSVMLRNVQPEDEGIYNCYIMNPPDRHRGHGKIHLQVLMEEPPERDSTVAHHHHHHHH
- E-cadherin protein levels (immunofluoresence and FACS) ([3]; β2 ECD in conditioned media for 48 hours): greatly reduced E-cadherin protein levels
- Vimentin protein expression (immunofluorescent staining) ([3]; β2 ECD in conditioned media, from otherwise undetectable levels): substantial increase in vimentin protein expression
- Migration of SW620 cells across transwell membrane [4]: significant increase in migration
- Phenotypic changes (elongation, enlargement, actin cytoskeleton remodeling) [6]: capable of inducing phenotypic changes
- Cell death as percentage of total cells [7]: 10%
- Nuclear Notch1 NICD staining [8]: nuclear NICD was detected
- Twist1 transcript expression ([9]; 6 hours after treatment with β2 ECD, oscillating at subsequent timepoints): induction of Twist1 transcript
- HES1 transcript expression ([9]; at 6 hours after β2 ECD in conditioned media): elevated HES1 transcript
- Phenotypic change in response to β2 [10]: no phenotypic change
